The record followed here is article PMC10881500.

For assay [1], the target named is KFN (Mut3; HuJovi-1 VH T28K, Y32F, A96N), human IgG1 (human). The assay is described as follows: SPR; Biacore T200; antibody as human IgG1 captured with an anti-human capture kit on CM5 to 200 RU; TRBC1 or TRBC2 as analyte, 150 s contact, 300 s dissociation, 30 μl/min, 25 °C, HBS-P+ pH 7.4; 1:1 Langmuir model.
Assay [2] concerns the target HuJovi-1 (humanized Jovi-1), human IgG1 (human). Described as above.

HuJovi-1 (humanized Jovi-1), human IgG1 (human), sequence (heavy, as listed by the source, chain 1 of 2): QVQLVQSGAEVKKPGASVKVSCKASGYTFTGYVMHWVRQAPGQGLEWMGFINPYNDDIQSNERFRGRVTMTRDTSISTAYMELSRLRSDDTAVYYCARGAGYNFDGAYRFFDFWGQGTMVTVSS
HuJovi-1 (humanized Jovi-1), human IgG1 (human), sequence (light, as listed by the source, chain 2 of 2): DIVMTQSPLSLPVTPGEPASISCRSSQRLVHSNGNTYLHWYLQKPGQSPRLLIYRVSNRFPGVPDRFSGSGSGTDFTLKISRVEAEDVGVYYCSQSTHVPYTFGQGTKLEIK
KFN (Mut3; HuJovi-1 VH T28K, Y32F, A96N), human IgG1 (human), sequence (heavy, as listed by the source, chain 1 of 2): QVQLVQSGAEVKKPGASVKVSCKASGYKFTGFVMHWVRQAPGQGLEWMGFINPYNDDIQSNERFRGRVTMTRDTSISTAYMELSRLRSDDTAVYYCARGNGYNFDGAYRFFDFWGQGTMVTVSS
KFN (Mut3; HuJovi-1 VH T28K, Y32F, A96N), human IgG1 (human), sequence (light, as listed by the source, chain 2 of 2): as the sequence (light, as listed by the source, chain 2 of 2) above

In general, Kd refers to a measure of binding affinity in units of concentration. Low readings indicate tighter binding, high ones weaker binding. What is called koff is a measure of how fast the partners let go of each other. Higher therefore signals fast dissociation. Take “Recombinant, purified TRBC1 (soluble αβ TCR with the β-chain constant domain TRBC1), SPR analyte”: in assay [1], the Kd worked out at 1.96 µM and the off-rate (koff) stood at 0.155 s⁻¹.
In the case of “Recombinant, purified TRBC2 (soluble αβ TCR with the β-chain constant domain TRBC2), SPR analyte”, in assay [2], the Kd turned out to be 12.9 µM and the koff was 1.29 s⁻¹.
